IntAct's records for PubMed 27150043

Target: ab1ip_mouse Apbb1ip (UniProt Q8R5A3)
Sequence of UniProt Q8R5A3 (Q8R5A3 whole entry): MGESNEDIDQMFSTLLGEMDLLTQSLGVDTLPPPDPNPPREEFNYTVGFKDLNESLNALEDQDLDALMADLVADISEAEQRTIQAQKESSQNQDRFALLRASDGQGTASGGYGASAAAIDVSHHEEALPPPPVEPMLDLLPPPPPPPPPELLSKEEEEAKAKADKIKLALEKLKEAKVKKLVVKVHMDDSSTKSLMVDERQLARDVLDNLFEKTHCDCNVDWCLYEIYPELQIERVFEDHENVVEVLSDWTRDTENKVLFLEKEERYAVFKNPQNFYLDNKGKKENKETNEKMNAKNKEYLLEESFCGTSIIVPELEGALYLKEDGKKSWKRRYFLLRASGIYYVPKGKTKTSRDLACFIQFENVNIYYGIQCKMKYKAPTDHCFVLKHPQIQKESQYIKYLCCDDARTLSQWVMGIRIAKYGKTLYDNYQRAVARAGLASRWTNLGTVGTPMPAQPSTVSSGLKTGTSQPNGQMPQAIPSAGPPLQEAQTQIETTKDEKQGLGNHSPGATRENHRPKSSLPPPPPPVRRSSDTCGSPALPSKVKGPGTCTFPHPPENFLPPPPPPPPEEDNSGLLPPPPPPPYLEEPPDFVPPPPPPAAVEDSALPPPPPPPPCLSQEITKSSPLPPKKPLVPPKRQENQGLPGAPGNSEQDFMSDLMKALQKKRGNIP

“Talin-1 (Mus musculus), P26039 E1794Y;E1797Y” was tested, and the “effect of a mutation on the interaction” value was “decreasing interaction strength”.

For “Talin-1 (Mus musculus), P26039 E1794Y;E1797Y;Q1801Y”, the “effect of a mutation on the interaction” value was “decreasing interaction strength”.
